Results: publication PMC10163345 (Journal of Cell Science, 2023)
Where no end group is shown, it is not given here.

Molecular target: T1, constitutively active truncated His-tagged WT calcineurin (6×His–CNAαWT:CNB) (human | , UniProt Q08209 1-392; P63098 1-170)
T1 construct: human CNAα (PPP3CA), truncated at residue 392, WT; calcineurin B subunit (PPP3R1, amino acids 1–170), expressed in tandem with CNAα; p11 vector (PSI:Biology-Materials Repository); held on His-tag Dynabeads in the pull-down; also called CNWT; source: E. coli BL21 (DE3), purified (Ni-NTA agarose, dialysed)
Assay: pull-down; 1–2 μg 6×His-tagged CN bound to His-Tag Dynabeads; 7–10 μg purified GST-tagged peptide added, 2 h at 4°C; 50 mM Tris-HCl pH 7.5, 150 mM NaCl, 0.1% Tween 20, 1 mM β-mercaptoethanol, 15 mM imidazole, 0.5 mg/ml BSA; immunoblot
Details: both partners purified

T1 sequence (Q08209 1-392, chain 1 of 2): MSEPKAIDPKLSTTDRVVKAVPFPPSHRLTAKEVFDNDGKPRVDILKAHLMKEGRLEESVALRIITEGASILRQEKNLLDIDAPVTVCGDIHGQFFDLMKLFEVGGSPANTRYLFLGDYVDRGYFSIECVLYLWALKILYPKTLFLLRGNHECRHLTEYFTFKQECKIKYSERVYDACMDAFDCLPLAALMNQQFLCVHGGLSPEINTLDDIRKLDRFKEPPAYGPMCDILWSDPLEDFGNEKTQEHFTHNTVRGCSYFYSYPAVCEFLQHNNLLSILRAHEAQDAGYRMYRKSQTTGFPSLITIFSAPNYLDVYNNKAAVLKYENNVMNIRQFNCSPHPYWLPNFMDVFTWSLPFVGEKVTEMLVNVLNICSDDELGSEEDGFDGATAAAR
T1 sequence (P63098 whole entry, chain 2 of 2, the tested form may be a part): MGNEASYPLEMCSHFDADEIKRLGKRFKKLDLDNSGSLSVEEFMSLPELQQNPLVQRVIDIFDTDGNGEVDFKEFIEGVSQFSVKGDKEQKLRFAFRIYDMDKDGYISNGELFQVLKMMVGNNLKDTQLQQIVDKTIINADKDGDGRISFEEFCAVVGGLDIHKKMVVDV

B1: GST-tagged POC5 PxIxIT peptide (POC5 PDVRIS) (peptide)
chain: KGELVPDVRISTIHDI
modifications: also: GST-tagged
notes: 16mer of human POC5 with the PxIxIT motif PDVRIS (residues 35–40 of Q8NA72-3) in the centre; pGEX-4T-3 vector; also called WT POC5 peptide; source: E. coli BL21 (DE3), purified (Glutathione Sepharose 4B, dialysed)
B1: binds.
